Assay results published in PMC4382182, “Characterization of Phospho-(Tyrosine)-Mimetic Calmodulin Mutants” (PLoS ONE, 2015).

Target: endothelial nitric oxide synthase (eNOS) (bovine recombinant baculovirus-expressed in Sf9 cells) (bovine) (UniProt P29473)
Sequence (P29473 whole entry): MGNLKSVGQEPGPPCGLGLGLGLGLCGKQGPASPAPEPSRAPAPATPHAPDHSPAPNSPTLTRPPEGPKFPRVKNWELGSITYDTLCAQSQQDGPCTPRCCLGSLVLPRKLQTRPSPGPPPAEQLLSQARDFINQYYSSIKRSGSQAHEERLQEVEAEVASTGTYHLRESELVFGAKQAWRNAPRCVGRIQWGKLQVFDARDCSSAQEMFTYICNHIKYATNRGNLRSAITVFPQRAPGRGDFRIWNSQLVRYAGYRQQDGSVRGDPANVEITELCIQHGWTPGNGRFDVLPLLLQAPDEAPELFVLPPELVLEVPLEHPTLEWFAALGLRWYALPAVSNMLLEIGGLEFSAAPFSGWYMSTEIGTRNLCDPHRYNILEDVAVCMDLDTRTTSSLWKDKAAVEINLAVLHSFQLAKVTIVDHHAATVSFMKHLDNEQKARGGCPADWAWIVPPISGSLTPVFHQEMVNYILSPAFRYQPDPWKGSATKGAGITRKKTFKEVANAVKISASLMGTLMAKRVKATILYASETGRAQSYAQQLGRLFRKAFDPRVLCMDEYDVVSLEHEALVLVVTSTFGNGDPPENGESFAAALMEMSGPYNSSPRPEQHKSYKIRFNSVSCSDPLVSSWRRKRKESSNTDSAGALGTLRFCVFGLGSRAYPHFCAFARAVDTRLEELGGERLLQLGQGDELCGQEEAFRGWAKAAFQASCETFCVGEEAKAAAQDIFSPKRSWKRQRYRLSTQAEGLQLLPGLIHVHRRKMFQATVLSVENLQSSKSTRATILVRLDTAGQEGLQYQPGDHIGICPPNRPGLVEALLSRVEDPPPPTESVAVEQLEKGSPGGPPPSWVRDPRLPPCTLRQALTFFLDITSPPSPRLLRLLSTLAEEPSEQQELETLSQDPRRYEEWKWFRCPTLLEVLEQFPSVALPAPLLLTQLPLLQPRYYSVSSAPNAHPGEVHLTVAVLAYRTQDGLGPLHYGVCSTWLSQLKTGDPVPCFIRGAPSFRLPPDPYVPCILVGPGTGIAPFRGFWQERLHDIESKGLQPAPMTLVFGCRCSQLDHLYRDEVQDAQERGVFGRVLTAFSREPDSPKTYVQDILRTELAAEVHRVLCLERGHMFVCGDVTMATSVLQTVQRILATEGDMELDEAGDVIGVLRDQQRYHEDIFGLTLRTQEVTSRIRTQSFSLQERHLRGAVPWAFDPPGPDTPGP

- increase of eNOS activity by phospho-(Y)-CaM over that by non-phosphorylated CaM, at increasing concentrations of CaM: 30%
Substance: purified bovine brain phospho-(Y)-CaM (phosphorylated by c-Src and free of non-phosphorylated CaM) (from UniProt P62157 1-149) (natural protein)
